# Measurements from patent US20260049138A1 (Chugai, published 2026).
# Substitutions are numbered along the chain they refer to. Numbers in names are those of the source.
# B1: GLS3000 G91E one-arm antibody (antibody, human IgG1, kappa, L234A L235A, N297A, name in Kabat numbering)
# heavy: QVQLVESGGGVVQPGRSLRLSCAASGFTFSNAWMHWVRQAPGKGLEWVAQIKAKSNNYATYYAESVKGRFTISRDDSKNSLYLQMNSLKTEDTAVYYCRYVHYGAYYGVDAWGQGTTVTVSSASTKGPSVFPLAPSSKSTSGGTAALGCLVKDYFPEPVTVSWNSGALTSGVHTFPAVLQSSGLYSLSSVVTVPSSSLGTQTYICNVNHKPSNTKVDKKVEPKSCDKTHTCPPCPAPEAAGGPSVFLFPPKPKDTLMISRTPEVTCVVVDVSHEDPEVKFNWYVDGVEVHNAKTKPREEQYASTYRVVSVLTVLHQDWLNGKEYKCKVSNKALPAPIEKTISKAKGQPREPQVYTLPPSRCELTKNQVSLSCAVKGFYPSDIAVEWESNGQPENNYKTTPPVLDSDGSFFLVSKLTVDKSRWQQGNVFSCSVMHEALHNHYTQKSLSLSPDYKDDDDK
# chain: EPKSSDKTHTCPPCPAPELLGGPSVFLFPPKPKDTLMISRTPEVTCVVVDVSHEDPEVKFNWYVDGVEVHNAKTKPREEQYNSTYRVVSVLTVLHQDWLNGKEYKCKVSNKALPAPIEKTISKAKGQPREPQVCTLPPSRDELTKNQVSLWCLVKGFYPSDIAVEWESNGQPENNYKTTPPVLDSDGSFFLYSKLTVDKSRWQQGNVFSCSVMHEALHNRYTQKSLSLSP
# light: DIVMTQSPLSLPVTPGEPASISCRSSQSLVHSNRNTYLHWYQQKPGQAPRLLIYKVSNRFSGVPDRFSGSGSGTDFTLKISRVEAEDVGVYYCGQETQVPYTFGQGTKLEIKRTVAAPSVFIFPPSDEQLKSGTASVVCLLNNFYPREAKVQWKVDNALQSGNSQESVTEQDSKDSTYSLSSTLTLSKADYEKHKVYACEVTHQGLSSPVTKSFNRGEC
# B2: GLS3000 H27dG one-arm antibody (antibody, human IgG1, kappa, L234A L235A, N297A, name in Kabat numbering)
# heavy: B1 heavy
# chain: B1 chain
# light: B1 light with H31G, E96G
# B3: GLS3000 H27dE one-arm antibody (antibody, human IgG1, kappa, L234A L235A, N297A, name in Kabat numbering)
# heavy: B1 heavy
# chain: B1 chain
# light: B1 light with H31E, E96G
# B4: GLS3000 H27dP one-arm antibody (antibody, human IgG1, kappa, L234A L235A, N297A, name in Kabat numbering)
# heavy: B1 heavy
# chain: B1 chain
# light: B1 light with H31P, E96G
# B5: GLS3000 H27dY one-arm antibody (antibody, human IgG1, kappa, L234A L235A, N297A, name in Kabat numbering)
# heavy: B1 heavy
# chain: B1 chain
# light: B1 light with H31Y, E96G
# B6: GLS3000 H34G one-arm antibody (antibody, human IgG1, kappa, L234A L235A, N297A, name in Kabat numbering)
# heavy: B1 heavy
# chain: B1 chain
# light: B1 light with H39G, E96G
# B7: GLS3000 H34N one-arm antibody (antibody, human IgG1, kappa, L234A L235A, N297A, name in Kabat numbering)
# heavy: B1 heavy
# chain: B1 chain
# light: B1 light with H39N, E96G
# B8: GLS3000 G91S one-arm antibody (antibody, human IgG1, kappa, L234A L235A, N297A, name in Kabat numbering)
# heavy: B1 heavy
# chain: B1 chain
# light: B1 light with E96S
# B9: GLS3000 H27dK one-arm antibody (antibody, human IgG1, kappa, L234A L235A, N297A, name in Kabat numbering)
# heavy: B1 heavy
# chain: B1 chain
# light: B1 light with H31K, E96G
# B10: GLS3000 H27dV one-arm antibody (antibody, human IgG1, kappa, L234A L235A, N297A, name in Kabat numbering)
# heavy: B1 heavy
# chain: B1 chain
# light: B1 light with H31V, E96G
# B11: GLS3000 H27dQ one-arm antibody (antibody, human IgG1, kappa, L234A L235A, N297A, name in Kabat numbering)
# heavy: B1 heavy
# chain: B1 chain
# light: B1 light with H31Q, E96G
# B12: GLS3000 H34K one-arm antibody (antibody, human IgG1, kappa, L234A L235A, N297A, name in Kabat numbering)
# heavy: B1 heavy
# chain: B1 chain
# light: B1 light with H39K, E96G
# B13: GLS3000 H34L one-arm antibody (antibody, human IgG1, kappa, L234A L235A, N297A, name in Kabat numbering)
# heavy: B1 heavy
# chain: B1 chain
# light: B1 light with H39L, E96G
# B14: GLS3000 H34A one-arm antibody (antibody, human IgG1, kappa, L234A L235A, N297A, name in Kabat numbering)
# heavy: B1 heavy
# chain: B1 chain
# light: B1 light with H39A, E96G
# B15: GLS3000 H27dS one-arm antibody (antibody, human IgG1, kappa, L234A L235A, N297A, name in Kabat numbering)
# heavy: B1 heavy
# chain: B1 chain
# light: B1 light with H31S, E96G
# B16: GLS3000 H34M one-arm antibody (antibody, human IgG1, kappa, L234A L235A, N297A, name in Kabat numbering)
# heavy: B1 heavy
# chain: B1 chain
# light: B1 light with H39M, E96G
# B17: GLS3000 G91Y one-arm antibody (antibody, human IgG1, kappa, L234A L235A, N297A, name in Kabat numbering)
# heavy: B1 heavy
# chain: B1 chain
# light: B1 light with E96Y
# B18: GLS3000 H27dF one-arm antibody (antibody, human IgG1, kappa, L234A L235A, N297A, name in Kabat numbering)
# heavy: B1 heavy
# chain: B1 chain
# light: B1 light with H31F, E96G
# B19: GLS3000 H27dM one-arm antibody (antibody, human IgG1, kappa, L234A L235A, N297A, name in Kabat numbering)
# heavy: B1 heavy
# chain: B1 chain
# light: B1 light with H31M, E96G
# B20: GLS3000 H27dR one-arm antibody (antibody, human IgG1, kappa, L234A L235A, N297A, name in Kabat numbering)
# heavy: B1 heavy
# chain: B1 chain
# light: B1 light with H31R, E96G
# B21: GLS3000 H34D one-arm antibody (antibody, human IgG1, kappa, L234A L235A, N297A, name in Kabat numbering)
# heavy: B1 heavy
# chain: B1 chain
# light: B1 light with H39D, E96G
# B22: GLS3000 H27dW one-arm antibody (antibody, human IgG1, kappa, L234A L235A, N297A, name in Kabat numbering)
# heavy: B1 heavy
# chain: B1 chain
# light: B1 light with H31W, E96G
# B23: GLS3000 H34E one-arm antibody (antibody, human IgG1, kappa, L234A L235A, N297A, name in Kabat numbering)
# heavy: B1 heavy
# chain: B1 chain
# light: B1 light with H39E, E96G
# B24: GLS3000 H27dT one-arm antibody (antibody, human IgG1, kappa, L234A L235A, N297A, name in Kabat numbering)
# heavy: B1 heavy
# chain: B1 chain
# light: B1 light with H31T, E96G
# B25: GLS3000 G91P one-arm antibody (antibody, human IgG1, kappa, L234A L235A, N297A, name in Kabat numbering)
# heavy: B1 heavy
# chain: B1 chain
# light: B1 light with E96P
# B26: GLS3000 H34I one-arm antibody (antibody, human IgG1, kappa, L234A L235A, N297A, name in Kabat numbering)
# heavy: B1 heavy
# chain: B1 chain
# light: B1 light with H39I, E96G
# B27: GLS3000 H27dN one-arm antibody (antibody, human IgG1, kappa, L234A L235A, N297A, name in Kabat numbering)
# heavy: B1 heavy
# chain: B1 chain
# light: B1 light with H31N, E96G
# B28: GLS3000 H34F one-arm antibody (antibody, human IgG1, kappa, L234A L235A, N297A, name in Kabat numbering)
# heavy: B1 heavy
# chain: B1 chain
# light: B1 light with H39F, E96G
# B29: GLS3000 G91T one-arm antibody (antibody, human IgG1, kappa, L234A L235A, N297A, name in Kabat numbering)
# heavy: B1 heavy
# chain: B1 chain
# light: B1 light with E96T
# B30: GLS3000 H27dL one-arm antibody (antibody, human IgG1, kappa, L234A L235A, N297A, name in Kabat numbering)
# heavy: B1 heavy
# chain: B1 chain
# light: B1 light with H31L, E96G
# B31: GLS3000 H27dI one-arm antibody (antibody, human IgG1, kappa, L234A L235A, N297A, name in Kabat numbering)
# heavy: B1 heavy
# chain: B1 chain
# light: B1 light with H31I, E96G
# B32: GLS3000 H27dD one-arm antibody (antibody, human IgG1, kappa, L234A L235A, N297A, name in Kabat numbering)
# heavy: B1 heavy
# chain: B1 chain
# light: B1 light with H31D, E96G
# Target: T1, CD3ε homodimer protein (human, UniProt P07766 23-126, limits assumed)
# T1 construct: also called CD3 (CD3ε)
# T1 sequence (P07766 23-126 limits assumed): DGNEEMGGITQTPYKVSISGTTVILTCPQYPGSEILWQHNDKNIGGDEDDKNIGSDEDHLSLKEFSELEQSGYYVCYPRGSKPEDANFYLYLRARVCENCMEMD
# Test: SPR Biacore T200, CD3ε homodimer on chip;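 note: Light-chain single-residue variant antibodies injected over amine-coupled CD3ε homodimer on a CM4 chip at 25 °C, bound amount divided by that of the GLS3000-containing antibody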
# Method: Each one-amino acid altered form constructed, expressed, and purified in the paragraph (6-2) was evaluated using Biacore T200 (GE Healthcare Japan Corp.). An appropriate amount of CD3ε homodimer protein was immobilized onto Sensor chip CM4 (GE Healthcare Japan Corp.) by the amine coupling method. Then, the antibody having an appropriate concentration was injected thereto as an analyte and allowed to interact with the CD3ε homodimer protein on the sensor chip. Then, the sensor chip was regenerated by the injection of 10 mmol/L glycine-HCl (pH 1.5). The assay was conducted at 25° C., and HBS-EP+ (GE Healthcare Japan Corp.) was used as a running buffer. […] Each parameter was calculated using Biacore T200 Evaluation Software (GE Healthcare Japan Corp.).
# Specifically, when the amount of the GLS3000-containing antibody bound was defined as X and the amount of the L chain one-amino acid altered form bound was defined as Y, a value of Z (ratio of amounts bound)=Y/X was used.
row,Binder,ratio of amount bound vs unaltered GLS3000
1,B1,0.16
2,B2,0.3
3,B3,0.23
4,B4,0.24
5,B5,0.64
6,B6,1.02
7,B7,0.65
8,B8,0.26
9,B9,0.29
10,B10,0.3
11,B11,0.25
12,B12,2.17
13,B13,0.59
14,B14,1.06
15,B15,0.32
16,B16,0.35

row,Binder,ratio of amount bound vs unaltered GLS3000
1,B17,0.17
2,B18,0.63
3,B19,0.3
4,B20,0.31
5,B21,0.22
6,B22,0.39
7,B23,0.23
8,B24,0.29
9,B25,0.27
10,B26,0.65
11,B27,0.3
12,B28,0.27
13,B29,0.26
14,B30,0.3
15,B31,0.26
16,B32,0.22
